pKd: −log10 of the molar value.
Molecular target: Cy5-labelled 46w60 mononucleosome (histone octamer on DNA)
Experiment: MST

A pKd of 7.39, a fold change of Kd with 2 uM (CA)20 RNA against no RNA of under 2 fold and a fold reduction of affinity with 2 uM (GA)20 RNA against no RNA of 20 fold were found for “human CHD4 (from UniProt Q14839 1-1912) (enzyme)” in this work.

Source: article doi:10.1101/2021.06.03.446896
